The values below come from patent US20180118803A1 (Memorial Sloan Kettering, published 2018).

Assay [1] has as its target T1, GPRC5D peptide stretch 5CIESTGDYFLLCD17 (N-term) (human).
T1 construct: This is a stretch deduced from array peptides that contain it
T1 peptide: CIESTGDYFLLCD
As to the kind of experiment: Pepscan ELISA on peptide arrays, high stringency, 1 ug/ml. As for the experimental part: (§1) ELISA Screening—The binding of antibody to each of the synthesized peptides was tested in a PEPSCAN-based ELISA. The peptide arrays were incubated with primary antibody solution (overnight at 4° C.). After washing, the peptide arrays were incubated with a 1/1000 dilution of an appropriate antibody peroxidase conjugate (SBA) for one hour at 25° C. After washing, the peroxidase substrate 2,2′-azino-di-3-ethylbenzthiazoline sulfonate (ABTS) and 2 μl/ml of 3 percent H₂O₂ were added. After one hour, the color development was measured. The color development was quantified with a charge coupled device (CCD)—camera and an image processing system.

Assay [2] deals with T2, GPRC5D peptides containing sequence 230QFQRQPQWDDPVVC243 (ECL3) (human).
T2 construct: This is a stretch deduced from array peptides that contain it
T2 peptide: QFQRQPQWDDPVVC
As to the kind of experiment: Pepscan ELISA, set 1 (linear) compared with set 4 (loop), high stringency, 3 ug/ml.

In assay [3] the target is T3, GPRC5D peptide stretch 15LCDAEGPWG23 (N-term) (human).
T3 construct: This is a stretch deduced from array peptides that contain it
T3 peptide: LCDAEGPWG
As to the kind of experiment: Pepscan ELISA on peptide arrays, high stringency, 3 ug/ml. As to the method:
as §1

Assay [4] concerns the target T4, GPRC5D peptide stretch 229PQFQRQPQW237 (ECL3) (human).
T4 construct: This is a stretch deduced from array peptides that contain it
T4 peptide: PQFQRQPQW
As to the kind of experiment: Pepscan ELISA on peptide arrays, moderate stringency, 1 ug/ml. As to the method:
as §1

For assay [5], the target named is T5, GPRC5D peptide stretch 16CDAEGPWGII25 (N-term) (human).
T5 construct: This is a stretch deduced from array peptides that contain it
T5 peptide: CDAEGPWGII
The assay is described as above. As for the experimental part: as §1

B1: ET150-5 mIgG1 (antibody, V domains shown)
VH: EVQLVESGGGLVKPGGSLRLSCAASGFTFSDYYMSWIRQAPGKGLEWVSYISSSGSTIYYADSVKGRFTISRDNAKNSLYLQMNSLRAEDTAVYYCARGYGKAYDQWGQGTLVTVSS
VL: QSVLTQPPSASGTPGQRVTISCSGSRSNVGGNYVFWYQQVPGATPKLLIYRSNQRPSGVPDRFAGSKSGSSASLAISGLRSEDEADYYCATWDDSLSGFVFGTGTKVTVLG
notes: also called ET150-155
Turning to B1, the binding result in assay [1] is reported as “binds”.

B2: ET150-8 mIgG1 (antibody, V domains shown)
VH: QVQLVESGGGLVHPGGSLRLSCAASGFTFRSHSMNWVRQAPGKGLEWVSSISSDSTYTYYADSVKGRFTISRDNAKNSLYLQMNSLRAEDTAVYYCARSGGQWKYYDYWGQGTLVTVSS
VL: SSELTQDPAVSVALGQTVRITCQGDSLRSYYASWYQQKPGQAPVLVIYGKNNRPSGIPDRFSGSSSGNTASLTITGAQAEDEADYYCNSRDSSGNPPVVFGGGTKLTVLG
notes: also called ET150-158
For the molecule B2, the binding result in assay [2] and in assay [3] was “binds” throughout.

B3: ET150-2 mIgG1 (antibody, V domains shown)
VH: QMQLVQSGAEVKKPGASVKVSCKASGYTFNRYAITWVRQAPGQGLEWMGWISAYNGNSHYAQKLQGRVTMTTDTSTGTAYMELRRLRSDDTAVYYCARMAYDSWGQGTLVTVSS
VL: QSVLTQPASVSGSPGQSLTISCTGTSNDVGAYKYVSWYQQYPGKAPKLILYDVFKRPSGVSNRFSGSKSDNTASLTISGLQAEDEADYYCFSLTSSNTYVFGTGTKVTVLG
notes: also called ET150-152
On to B3, for which the binding result in assay [4] and in assay [5] was “binds” throughout.
